Here are results for four molecules from US20220401557A1 (Chugai, published 2022).

This assay deals with CD3 on NFAT-RE-luc2-Jurkat cells (human, UniProt P07766 23-207). The assay is described as follows: cell-based or functional assay.
Sequence of CD3 on NFAT-RE-luc2-Jurkat cells (P07766 23-207): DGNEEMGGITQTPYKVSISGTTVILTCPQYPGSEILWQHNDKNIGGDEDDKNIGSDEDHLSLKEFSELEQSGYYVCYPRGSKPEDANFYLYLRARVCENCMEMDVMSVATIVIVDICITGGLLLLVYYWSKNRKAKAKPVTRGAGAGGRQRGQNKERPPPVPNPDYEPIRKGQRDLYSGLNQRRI

B1: rCE115/GLSGS//GCH065 (bispecific antibody, human IgG1, kappa, N297A)
heavy 1: EVQLVETGGSLVQPGKSLKLTCATSGFTFSNAWMHWVRQSPEKQLEWVAQIKAKSNNYATYYAESVKGRFTISRDDSKSNIYLQMNSLKEEDTAVYYCRYVHYGAYYGVDAWGQGTSVTVSSASTKGPSVFPLAPSSKSTSGGTAALGCLVKDYFPEPVTVSWNSGALTSGVHTFPAVLQSSGLYSLSSVVTVPSSSLGTQTYICNVNHKPSNTKVDKKVEPKSCDKTHTCPPCPAPELRGGPKVFLFPPKPKDTLMISRTPEVTCVVVDVSHEDPEVKFNWYVDGVEVHNAKTKPREEQYASTYRVVSVLTVLHQDWLNGKEYKCKVSNKALPAPIEKTISKAKGQPREPQVYTLPPSRKEMTKNQVSLTCLVKGFYPSDIAVEWESNGQPENNYKTTPPYLDSDGSFFLYSKLTVDKSRWQQGNVFSCSVMHEALHNHYTQKSLSLSP
light 1: QDGNEGGGSGGGSGGGSDIVMTQSPLSLPVTPGEPASISCRSSQSLVHSNRNTYLHWYQQKPGQAPRLLIYKVSNRFSGVPDRFSGSGSGTDFTLKISRVEAEDVGVYYCGQGTQVPYTFGQGTKLEIKRTVAAPSVFIFPPSDEQLKSGTASVVCLLNNFYPREAKVQWKVDNALQSGNSQESVTEQDSKDSTYSLSSTLTLSKADYEKHKVYACEVTHQGLSSPVTKSFNRGEC
heavy 2: QVQLVQSGAEVKKPGASVTVSCKASGYTFTDYEMHWIRQPPGEGLEWIGAIDGPTPDTAYSEKFKGRVTLTADKSTSTAYMELSSLTSEDTAVYYCTRFYSYTYWGQGTLVTVSSASTKGPSVFPLAPSSKSTSGGTAALGCLVKDYFPEPVTVSWNSGALTSGVHTFPAVLQSSGLYSLSSVVTVPSSSLGTQTYICNVNHKPSNTKVDKKVEPKSCDKTHTCPPCPAPELRGGPKVFLFPPKPKDTLMISRTPEVTCVVVDVSHEDPEVKFNWYVDGVEVHNAKTKPREEQYASTYRVVSVLTVLHQDWLNGKEYKCKVSNKALPAPIEKTISKAKGQPREPQVYTLPPSREEMTKNQVSLTCLVKGFYPSDIAVEWESNGQPENNYKTTPPYLDSDGSFFLYSKLTVDKSRWQQGNVFSCSVMHEALHNHYTQESLSLSP
light 2: DIVMTQSPLSLPVTPGEPASISCRSSQPLVHSNRNTYLHWYQQKPGQAPRLLIYKVSNRFSGVPDRFSGSGSGTDFTLKISRVEAEDVGVYYCGQGTQVPYTFGQGTKLEIKRTVAAPSVFIFPPSDEQLKSGTASVVCLLNNFYPREAKVQWKVDNALQSGNSQESVTEQDSKDSTYSLSSTLTLSKADYEKHKVYACEVTHQGLSSPVTKSFNRGEC
For the molecule B1, the “increase rate due to the protease treatment (luciferase, uPA-treated / untreated), antibody 0.1 nM” value was found to be 1 ratio and the “increase rate due to the protease treatment (luciferase, uPA-treated / untreated), antibody 1 nM” value stood at 0.7 ratio.

B2: rCE115/GLSuPA20//GCH065 (bispecific antibody, human IgG1, kappa, N297A)
heavy 1: EVQLVETGGSLVQPGKSLKLTCATSGFTFSNAWMHWVRQSPEKQLEWVAQIKAKSNNYATYYAESVKGRFTISRDDSKSNIYLQMNSLKEEDTAVYYCRYVHYGAYYGVDAWGQGTSVTVSSASTKGPSVFPLAPSSKSTSGGTAALGCLVKDYFPEPVTVSWNSGALTSGVHTFPAVLQSSGLYSLSSVVTVPSSSLGTQTYICNVNHKPSNTKVDKKVEPKSCDKTHTCPPCPAPELRGGPKVFLFPPKPKDTLMISRTPEVTCVVVDVSHEDPEVKFNWYVDGVEVHNAKTKPREEQYASTYRVVSVLTVLHQDWLNGKEYKCKVSNKALPAPIEKTISKAKGQPREPQVYTLPPSRKEMTKNQVSLTCLVKGFYPSDIAVEWESNGQPENNYKTTPPYLDSDGSFFLYSKLTVDKSRWQQGNVFSCSVMHEALHNHYTQKSLSLSP
light 1: QDGNEEMGGITQTPYKVSISLSGRSDNHGGGSDIVMTQSPLSLPVTPGEPASISCRSSQSLVHSNRNTYLHWYQQKPGQAPRLLIYKVSNRFSGVPDRFSGSGSGTDFTLKISRVEAEDVGVYYCGQGTQVPYTFGQGTKLEIKRTVAAPSVFIFPPSDEQLKSGTASVVCLLNNFYPREAKVQWKVDNALQSGNSQESVTEQDSKDSTYSLSSTLTLSKADYEKHKVYACEVTHQGLSSPVTKSFNRGEC
heavy 2: QVQLVQSGAEVKKPGASVTVSCKASGYTFTDYEMHWIRQPPGEGLEWIGAIDGPTPDTAYSEKFKGRVTLTADKSTSTAYMELSSLTSEDTAVYYCTRFYSYTYWGQGTLVTVSSASTKGPSVFPLAPSSKSTSGGTAALGCLVKDYFPEPVTVSWNSGALTSGVHTFPAVLQSSGLYSLSSVVTVPSSSLGTQTYICNVNHKPSNTKVDKKVEPKSCDKTHTCPPCPAPELRGGPKVFLFPPKPKDTLMISRTPEVTCVVVDVSHEDPEVKFNWYVDGVEVHNAKTKPREEQYASTYRVVSVLTVLHQDWLNGKEYKCKVSNKALPAPIEKTISKAKGQPREPQVYTLPPSREEMTKNQVSLTCLVKGFYPSDIAVEWESNGQPENNYKTTPPYLDSDGSFFLYSKLTVDKSRWQQGNVFSCSVMHEALHNHYTQESLSLSP
light 2: DIVMTQSPLSLPVTPGEPASISCRSSQPLVHSNRNTYLHWYQQKPGQAPRLLIYKVSNRFSGVPDRFSGSGSGTDFTLKISRVEAEDVGVYYCGQGTQVPYTFGQGTKLEIKRTVAAPSVFIFPPSDEQLKSGTASVVCLLNNFYPREAKVQWKVDNALQSGNSQESVTEQDSKDSTYSLSSTLTLSKADYEKHKVYACEVTHQGLSSPVTKSFNRGEC
For the molecule B2, the “increase rate due to the protease treatment (luciferase, uPA-treated / untreated), antibody 0.1 nM” value was 2.8 ratio and the “increase rate due to the protease treatment (luciferase, uPA-treated / untreated), antibody 1 nM” value turned out to be 1.6 ratio.

B3: rCE115/GLSuPA04//GCH065 (bispecific antibody, human IgG1, kappa, N297A)
heavy 1: EVQLVETGGSLVQPGKSLKLTCATSGFTFSNAWMHWVRQSPEKQLEWVAQIKAKSNNYATYYAESVKGRFTISRDDSKSNIYLQMNSLKEEDTAVYYCRYVHYGAYYGVDAWGQGTSVTVSSASTKGPSVFPLAPSSKSTSGGTAALGCLVKDYFPEPVTVSWNSGALTSGVHTFPAVLQSSGLYSLSSVVTVPSSSLGTQTYICNVNHKPSNTKVDKKVEPKSCDKTHTCPPCPAPELRGGPKVFLFPPKPKDTLMISRTPEVTCVVVDVSHEDPEVKFNWYVDGVEVHNAKTKPREEQYASTYRVVSVLTVLHQDWLNGKEYKCKVSNKALPAPIEKTISKAKGQPREPQVYTLPPSRKEMTKNQVSLTCLVKGFYPSDIAVEWESNGQPENNYKTTPPYLDSDGSFFLYSKLTVDKSRWQQGNVFSCSVMHEALHNHYTQKSLSLSP
light 1: QDGNEEMGGGSGGGSGGGSLSGRSDNHGGGSDIVMTQSPLSLPVTPGEPASISCRSSQSLVHSNRNTYLHWYQQKPGQAPRLLIYKVSNRFSGVPDRFSGSGSGTDFTLKISRVEAEDVGVYYCGQGTQVPYTFGQGTKLEIKRTVAAPSVFIFPPSDEQLKSGTASVVCLLNNFYPREAKVQWKVDNALQSGNSQESVTEQDSKDSTYSLSSTLTLSKADYEKHKVYACEVTHQGLSSPVTKSFNRGEC
heavy 2: QVQLVQSGAEVKKPGASVTVSCKASGYTFTDYEMHWIRQPPGEGLEWIGAIDGPTPDTAYSEKFKGRVTLTADKSTSTAYMELSSLTSEDTAVYYCTRFYSYTYWGQGTLVTVSSASTKGPSVFPLAPSSKSTSGGTAALGCLVKDYFPEPVTVSWNSGALTSGVHTFPAVLQSSGLYSLSSVVTVPSSSLGTQTYICNVNHKPSNTKVDKKVEPKSCDKTHTCPPCPAPELRGGPKVFLFPPKPKDTLMISRTPEVTCVVVDVSHEDPEVKFNWYVDGVEVHNAKTKPREEQYASTYRVVSVLTVLHQDWLNGKEYKCKVSNKALPAPIEKTISKAKGQPREPQVYTLPPSREEMTKNQVSLTCLVKGFYPSDIAVEWESNGQPENNYKTTPPYLDSDGSFFLYSKLTVDKSRWQQGNVFSCSVMHEALHNHYTQESLSLSP
light 2: DIVMTQSPLSLPVTPGEPASISCRSSQPLVHSNRNTYLHWYQQKPGQAPRLLIYKVSNRFSGVPDRFSGSGSGTDFTLKISRVEAEDVGVYYCGQGTQVPYTFGQGTKLEIKRTVAAPSVFIFPPSDEQLKSGTASVVCLLNNFYPREAKVQWKVDNALQSGNSQESVTEQDSKDSTYSLSSTLTLSKADYEKHKVYACEVTHQGLSSPVTKSFNRGEC
With B3, the “increase rate due to the protease treatment (luciferase, uPA-treated / untreated), antibody 0.1 nM” value was 6.4 ratio and the “increase rate due to the protease treatment (luciferase, uPA-treated / untreated), antibody 1 nM” value is 3.1 ratio.

B4: rCE115/GLSuPA27//GCH065 (bispecific antibody, human IgG1, kappa, N297A)
heavy 1: EVQLVETGGSLVQPGKSLKLTCATSGFTFSNAWMHWVRQSPEKQLEWVAQIKAKSNNYATYYAESVKGRFTISRDDSKSNIYLQMNSLKEEDTAVYYCRYVHYGAYYGVDAWGQGTSVTVSSASTKGPSVFPLAPSSKSTSGGTAALGCLVKDYFPEPVTVSWNSGALTSGVHTFPAVLQSSGLYSLSSVVTVPSSSLGTQTYICNVNHKPSNTKVDKKVEPKSCDKTHTCPPCPAPELRGGPKVFLFPPKPKDTLMISRTPEVTCVVVDVSHEDPEVKFNWYVDGVEVHNAKTKPREEQYASTYRVVSVLTVLHQDWLNGKEYKCKVSNKALPAPIEKTISKAKGQPREPQVYTLPPSRKEMTKNQVSLTCLVKGFYPSDIAVEWESNGQPENNYKTTPPYLDSDGSFFLYSKLTVDKSRWQQGNVFSCSVMHEALHNHYTQKSLSLSP
light 1: QDGNEEMGGITQTPYKVSISGTTVILTLSGRSDNHDIVMTQSPLSLPVTPGEPASISCRSSQSLVHSNRNTYLHWYQQKPGQAPRLLIYKVSNRFSGVPDRFSGSGSGTDFTLKISRVEAEDVGVYYCGQGTQVPYTFGQGTKLEIKRTVAAPSVFIFPPSDEQLKSGTASVVCLLNNFYPREAKVQWKVDNALQSGNSQESVTEQDSKDSTYSLSSTLTLSKADYEKHKVYACEVTHQGLSSPVTKSFNRGEC
heavy 2: QVQLVQSGAEVKKPGASVTVSCKASGYTFTDYEMHWIRQPPGEGLEWIGAIDGPTPDTAYSEKFKGRVTLTADKSTSTAYMELSSLTSEDTAVYYCTRFYSYTYWGQGTLVTVSSASTKGPSVFPLAPSSKSTSGGTAALGCLVKDYFPEPVTVSWNSGALTSGVHTFPAVLQSSGLYSLSSVVTVPSSSLGTQTYICNVNHKPSNTKVDKKVEPKSCDKTHTCPPCPAPELRGGPKVFLFPPKPKDTLMISRTPEVTCVVVDVSHEDPEVKFNWYVDGVEVHNAKTKPREEQYASTYRVVSVLTVLHQDWLNGKEYKCKVSNKALPAPIEKTISKAKGQPREPQVYTLPPSREEMTKNQVSLTCLVKGFYPSDIAVEWESNGQPENNYKTTPPYLDSDGSFFLYSKLTVDKSRWQQGNVFSCSVMHEALHNHYTQESLSLSP
light 2: DIVMTQSPLSLPVTPGEPASISCRSSQPLVHSNRNTYLHWYQQKPGQAPRLLIYKVSNRFSGVPDRFSGSGSGTDFTLKISRVEAEDVGVYYCGQGTQVPYTFGQGTKLEIKRTVAAPSVFIFPPSDEQLKSGTASVVCLLNNFYPREAKVQWKVDNALQSGNSQESVTEQDSKDSTYSLSSTLTLSKADYEKHKVYACEVTHQGLSSPVTKSFNRGEC
In the case of B4, the “increase rate due to the protease treatment (luciferase, uPA-treated / untreated), antibody 0.1 nM” value is 1 ratio and the “increase rate due to the protease treatment (luciferase, uPA-treated / untreated), antibody 1 nM” value was 1.5 ratio.
